From patent US20240239899A1 (Memorial Sloan Kettering, published 2024) come the findings set out here.

Test [1] has as its target CCCK phosphopeptide/HLA-A2 complex on T2 cells (human, phosphoserine at position 7). As to the kind of experiment: flow cytometry, T2 cells pulsed with 20 µg/ml peptide (FIG. 11).
The target of test [2] is b-catenin phosphopeptide/HLA-A2 complex on T2 cells (human, phosphoserine at position 4). The test is described as above.
The target of test [3] is T1, HLA-A2 molecule on T2 cells (T2 cells alone, not pulsed) (human).
T1 construct: Stands both for the target 'T2 cells alone' and for the partner of the pulsed peptides in the T2 stabilization assays; also called HLA-A02
Put plainly: flow cytometry, titration of 6B1 on unpulsed T2 cells (FIG. 1C).

In test [4] the target is T1, HLA-A2 molecule on T2 cells (T2 cells …). Put plainly: flow cytometry, unpulsed T2 cells, secondary anti-His-tag mAb.

B1: 6B1 mAb (TCR mimic, full length human IgG1) (antibody, V domains shown)
VH: EVQLLESGGGLVQPGGSLRLSCAASGFTFSSYAMSWVRQAPGKGLEWVSEISGGGGYTDYADSVKGRFTISRDNSKNTLYLQMNSLRAEDTAVYYCARQMYYYYGMDVWGQVTTVTVSS
VL: EIVLTQSPGTLSLSPGERATLSCRASQSVSANYLAWYQQKPGQAPRLLIYGASSRATGIPDRFSGSGSGTDFTLTISRLEPEDFAVYYCQQSYQRPLTFGQGTKVEIK
notes: Full length human IgG1; Conjugated to APC for direct staining of tumor cell lines; also called mAb 6B1; Mab 6B1
In the case of B1, the binding result in test [1] was “no binding”; in test [2], “no binding”; in test [3] it was “no binding (tested: 10 µg/ml to 0.1 µg/ml)”.

B2: 6B1 BisAb h2+2 (L2K scFv inserted into the upper hinge of 6B1 IgG1) (bispecific antibody)
heavy: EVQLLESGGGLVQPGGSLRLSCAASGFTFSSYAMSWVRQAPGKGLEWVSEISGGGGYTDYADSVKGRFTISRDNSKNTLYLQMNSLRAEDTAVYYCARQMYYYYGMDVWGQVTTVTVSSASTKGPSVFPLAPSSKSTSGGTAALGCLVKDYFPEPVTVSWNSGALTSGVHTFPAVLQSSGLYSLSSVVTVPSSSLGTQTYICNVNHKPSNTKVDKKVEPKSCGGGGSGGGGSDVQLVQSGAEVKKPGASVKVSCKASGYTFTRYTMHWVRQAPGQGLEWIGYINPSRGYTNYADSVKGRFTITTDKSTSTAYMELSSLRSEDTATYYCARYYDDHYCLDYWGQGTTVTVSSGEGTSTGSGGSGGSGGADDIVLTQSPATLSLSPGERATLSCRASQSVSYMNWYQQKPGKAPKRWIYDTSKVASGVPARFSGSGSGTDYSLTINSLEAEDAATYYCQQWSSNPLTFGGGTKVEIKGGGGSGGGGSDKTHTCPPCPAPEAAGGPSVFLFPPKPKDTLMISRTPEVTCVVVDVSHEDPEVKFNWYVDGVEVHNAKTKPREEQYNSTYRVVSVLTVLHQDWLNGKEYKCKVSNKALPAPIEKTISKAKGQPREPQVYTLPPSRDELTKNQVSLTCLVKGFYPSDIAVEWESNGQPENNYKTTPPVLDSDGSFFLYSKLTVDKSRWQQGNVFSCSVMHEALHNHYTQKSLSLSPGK
light: EIVLTQSPGTLSLSPGERATLSCRASQSVSANYLAWYQQKPGQAPRLLIYGASSRATGIPDRFSGSGSGTDFTLTISRLEPEDFAVYYCQQSYQRPLTFGQGTKVEIKRTVAAPSVFIFPPSDEQLKSGTASVVCLLNNFYPREAKVQWKVDNALQSGNSQESVTEQDSKDSTYSLSSTLTLSKADYEKHKVYACEVTHQGLSSPVTKSFNRGEC
B2: the binding result in test [4] is reported as “no binding (tested: 1 or 0.1 µg/ml)”.

B3: 6B1 BisAb C2+2 (L2K scFv fused to the C-terminus of the 6B1 IgG1 heavy chain) (bispecific antibody)
heavy: not shown
light: B2 light
notes: copies: 2 + 2
Regarding B3, the binding result in test [4] is “no binding (tested: 1 or 0.1 µg/ml)”.
